From the nanobody polyreactivity screen of Harvey et al. (2022)

assay: yeast display, Sf9 membrane polyspecificity reagent, FACS + sequencing; frameworks hold sequencing errors
Method in brief: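 Polyreactivity labels are assigned by the sorting gate from which each nanobody was recovered. The gates were low and high (top ~1%), set on anti-HA fluorescence for expression and streptavidin fluorescence for reagent binding. Before sorting, galactose-induced (36–48 hours) yeast display cells were stained for 1 hour at 4 °C with 10% biotinylated, detergent-solubilized Sf9 membrane reagent.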

| Sequence | polyreactivity (PSR sort gate) |
| --- | --- |
| QVQLVESGGGLVQAGGSLRLSCAASGIIFYLYAMGWYRQAPGKERELVAAISRRGGSTYYADSVKGRFTISRDNAKNTVYLQMNSLKPEDTAVYYCAATIGTFGYGYWGQGTQVTVSS | high polyreactivity |
| QVQLVESGGGLVQAGGSLRLSCAASGIIFYLYAMGWYRQAPGKERELVAAITLSGSTTYYADSVKGGFTISRDNAKNTVYLQMNSLKPEDTAVYYCNADTPVRSDYWGQGTQVTVSS | low polyreactivity |
| QVQLVESGGGLVQAGGSLRLSCAASGIIFYNNAMGWYRKAPGKERELVADITSGNTNYADSVKGRFTISRDNAKNTVYLQMNSLKPEDTAVYYCNAEDDYTYDRSFGGYKYDYWGQGTQVTVSS | low polyreactivity |
| QVQLVESGGGLVQAGGSLRLSCAASGIIFYPYAMGWYRQAPGKERELVAAISQSGGTTSYADSVKGRFTISRDNAKNTVYLQMNSLKPEDTAVYYCARRVSTRKRYYYWGQGTQVTVSS | high polyreactivity |
| QVQLVESGGGLVQAGGSLRLSCAASGIIFYPYAMGWYRQAPGKERELVAAISTSGGRTYYADSVKGRFTISRDNAKNTVYLQMNSLKPEDTAVYYCAADNSSGDVNGGGYWGQGTQVTVSS | low polyreactivity |
| QVQLVESGGGLVQAGGSLRLSCAASGIIFYRYAMGWYRQAPGKEREFVAAISWSGGSTTYADSVKGRFTISRDNAKNTVYLQMNSLKPEDTAVYYCNADRIYWSLWGPAYDYWGQGTQVTVSS | high polyreactivity |
| QVQLVESGGGLVQAGGSLRLSCAASGIIFYRYAMGWYRQAPGKERELVAAITWRGGSTYYADSVKGRFTISRDNAMNTVYLQMNSLKPEDTAVYYCAARRRATYELDYWGQGTQVNVSS | high polyreactivity |
| QVQLVESGGGLVQAGGSLRLSCAASGIIFYRYTKGWSRQAPGKETELVAGITRNGGSTYYADSVKGRFTISRVNAKNPVYLQMNSLKPEDTAVYYCATTLKFYWAKLDYRGQGTQVTVSS | low polyreactivity |
| QVQLVESGGGLVQAGGSLRLSCAASGIIFYSYAMGWYRPAPGKERELVAAISTGSSTNYADSVKGRFTISRDNAKNTVYLQMNSLKPEDTAVYYCAKSTAVKPYAYRESGFIYDYWGQGTQVTVSS | low polyreactivity |
| QVQLVESGGGLVQAGGSLRLSCAASGIIFYTYAMGWYRQAPGKERELVAAISRSGVRTYYADSVKGRFTISRDNAKNTVYLQMNSLKPEDTAVYYCAVDKGITQGLYDYWGQGTQVTVSS | high polyreactivity |
| QVQLVESGGGLVQAGGSLRLSCAASGIIFYTYVMGWYRQAPGKEREFVAGISTSGGRTDYADSVKGRFTISRDNAKNTVYLQMNSLKPEDTAVYYCNADYWQWYSYWYDYWGQGTQVTVSS | high polyreactivity |
| QVQLVESGGGLVQAGGSLRLSCAASGIIFYTYVMGWYRQAPGKEREFVAGISTSGGRTDYADSVKGRFTISRDNAKNTVYLQMNSLKPEDTAVYYCNKLYRYPRYYYWGQGTQVTVSS | high polyreactivity |
| QVQLVESGGGLVQAGGSLRLSCAASGIIFYVNDMGWYRQAPGKERELVADISGGTSTNYADSVKGRFTISRDNAKNTVYLQMNSLKPEDTAVYYCATAFIVPFPGSDYWGQGTQVTVSS | low polyreactivity |
| QVQLVESGGGLVQAGGSLRLSCAASGIIFYVYAMGWYRQAPGKERELVAAISDTAGDTYYADSVKGRFTISRDNAKNTVYLQMNSLKPEDTAVSYCAADYYPLVGYWGQGTQVTVSS | low polyreactivity |
| QVQLVESGGGLVQAGGSLRLSCAASGIIFYVYAMGWYRQAPGKERELVAAISTSGGSTYYADSVKGRFTISRDNAKNTVYLQMNSLKPEDTAVYYCAADRPARSPKGSVDYWGQGTQVTVSS | high polyreactivity |
| QVQLVESGGGLVQAGGSLRLSCAASGIIFYYNAMGWYRQAPGKERELVAAISWSGGSTYYADSVKGRFTISRDNAKNTVYLQMNSLKPEDTAVYYCNAVRSTSYGSYNYWGQGTQVTVSS | low polyreactivity |
| QVQLVESGGGLVQAGGSLRLSCAASGIIFYYNAMGWYRQAPGKERELVAAISWSGGSTYYADSVKGRFTISRDYAKNSVYLQMNSLKTEDTAVYYCAADYYWRVHYGYWGQGTQVTVSS | high polyreactivity |
| QVQLVESGGGLVQAGGSLRLSCAASGIIFYYYAMGWYRQAPGKERELVAAITGTGSRTYYADSVKGRFTISRDNAKNTVYLQMNSLKPEDTAVYYCNARSFATGSKVPARGYWGQGTQVTVSS | high polyreactivity |
| QVQLVESGGGLVQAGGSLRLSCAASGIIFYYYAMGWYSPAPGKERELVAAISSGGSTYYADSVKGRFTISRDNAKNTVYLQMNSLKPEDTAVYYCAADPLYTIDIEYSTYGDFDYWGQGTQVTVSS | low polyreactivity |
| QVQLVESGGGLVQAGGSLRLSCAASGIIIARNTMGWYRQAPGKERELVAAISTRGTTTYYADSVKGRFTISRDNAENTVYLQMNSLKPEDTAVYYCAAVRVHTDRYNYWGQGTQVTVSS | high polyreactivity |
| QVQLVESGGGLVQAGGSLRLSCAASGIIIKYYAMGWYRQAPGKERELVAAITDRGGSTYYADSVKGRFTISRDNAKNTVYLQMNSLKPEDTAVYYCAARRRAYTPYYYWGQGTQVTVSS | high polyreactivity |
| QVQLVESGGGLVQAGGSLRLSCAASGIIIRNYGMGCYRQAPGKERELVARIRWTGGSTYYADSVKGRFTISRDNAKNTVYLQMNSLKPEDTAVYYCAADIWQYSRIANYHPYDYWGQGTQVTVSS | low polyreactivity |
| QVQLVESGGGLVQAGGSLRLSCAASGIIIVRYAMGWYRQAPGKERELVAAISRRGGSTYYADSVKGRFTISRDNAKNTVSLQMNSLKPEDTAVYYCAALLGDITGYDYWGQGTQVTVSS | high polyreactivity |
| QVQLVESGGGLVQAGGSLRLSCAASGIILAFNAMGWYRQAPGKEREFVASISQGGSSTYYADSVKGRFTISRDNAKNTVYLQMNSLKREDTAVYYCAARSSRVRSPYQRYYYWGQGTQVTVSS | high polyreactivity |
| QVQLVESGGGLVQAGGSLRLSCAASGIILDRNAMGWYRQAPGKERELDAAINSIGGSTYYADSVKGRFTISRDNAKNTVYLQMNSLKPEDTAVYYCAAPSTSSYYWGQGTQVTVSS | low polyreactivity |
| QVQLVESGGGLVQAGGSLRLSCAASGIILGAYDMGLYRQAPGKERELVAAINRNGDRTYYADSVKGRFTISRDNAKNTVYLQMKSLKPEDTAVYFCAAPRVVRTFDYWGQGTQVTVSS | high polyreactivity |
| QVQLVESGGGLVQAGGSLRLSCAASGIILHYYAMGWYRQAPGKERELVAAISARGGRTYYADSVKGRFTISRDNANNTVYLQMNSLKPEDTAVYYCAAVTVASPTRMDYWGQGTQVTVSS | high polyreactivity |
| QVQLVESGGGLVQAGGSLRLSCAASGIILNYNAMGWYRQAPGKERELVAVIRTRGGSTYYADSVKGRFTISRDNAKNTVYLQMNSLKPEDTAVYYCAAKQIPWHRGGFGYDYWGQGSQVTVSS | low polyreactivity |
| QVQLVESGGGLVQAGGSLRLSCAASGIILPYYAMGWYRQAPGKEREIVATISSDGTSTYYADSVKGRFTISRDNAKNTVYLQMNSLKPEDTAVYYCAARIRQNPGGDNSWGQGTQVTVSS | low polyreactivity |
| QVQLVESGGGLVQAGGSLRLSCAASGIILRGYVIGWYRQAPGQERELVAAISTSGGRTYYADSVKGRFTISRDNAKNTVYLQMNSLKQEDTAVYYCAAVSSRLWLYDYWGQGTQVTVSS | high polyreactivity |
